Assay results from patent US20210253725A1 (BIONTECH, published 2021).
Values belong to the binder of their own block, whether it stands above or below them.

Columns and labels:
[1] = target: T1, CD134 expressed on the cell surface of HT1080_OX40 cells (human, UniProt P43489 29-277); assay: HT1080_OX40 cells, imaging
T1 construct: whole, on cells; species not restated for the HT1080 transfectant
T1 sequence (looked up): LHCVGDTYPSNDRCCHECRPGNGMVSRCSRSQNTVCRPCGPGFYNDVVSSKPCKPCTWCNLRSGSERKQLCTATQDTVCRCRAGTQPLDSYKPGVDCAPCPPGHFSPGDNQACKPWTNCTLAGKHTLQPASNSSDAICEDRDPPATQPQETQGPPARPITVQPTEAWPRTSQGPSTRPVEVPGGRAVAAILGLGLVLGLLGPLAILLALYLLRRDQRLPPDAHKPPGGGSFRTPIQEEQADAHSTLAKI

[2] = target: T1, CD134 expressed on the cell surface of …; assay: cell-based or functional assay
[3] = target: T2, CD134 protein (His-tagged, Sino Biological Inc. 10481-H08H) (human, UniProt P43489 29-216); assay: ELISA, coated His-tagged CD134
T2 construct: bought protein coated on ELISA plates; also called OX40; TNFRSF4; not shown: His tag
T2 sequence (looked up): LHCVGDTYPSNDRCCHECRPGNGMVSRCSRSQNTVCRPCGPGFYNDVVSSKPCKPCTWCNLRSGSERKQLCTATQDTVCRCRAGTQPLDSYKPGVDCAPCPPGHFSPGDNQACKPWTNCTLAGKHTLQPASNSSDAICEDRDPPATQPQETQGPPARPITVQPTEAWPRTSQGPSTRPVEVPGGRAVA
Further: test concentration or dose not given here.

Cellular binding assay [RFU] [1]: 500 RFU
Functional assay Cross-linked by F(ab′)2 fragment IL-8 [2]: 2.05 abs. corr.
Functional assay IL-8 [2]: 0.374 abs. corr.
ELISA [abs. corr.] [3]: 1.65 abs. corr.
B1: P018.S.12.A.F06 (antibody, V domains shown)
VH: QSLEESGGDLVKPGGTLTLTCKASGIDFNNYYVCWVRQAPGKGLEWVGCIYTGSGSTYYASWAKGRFTITRSSSTTVTLQMTSLTAADTATYFCARPEFYDTYGYAGYGYATPNYFNFWGPGTLVTVSS
VL: AAVLTQTPSPVSAAVGGTVTIKCQASQSVYNNNLLSWYQQKPGQPPKLLMYDASNLASGVPDRFSGSGSGTQFTLTISDLESDDAATYYCLGGYDDDADYNAFGGGTEVVVA
notes: V regions on human Ig constant parts; also called AB134_82

Cellular binding assay [RFU] [1]: 582 RFU
Functional assay Cross-linked by F(ab′)2 fragment IL-8 [2]: 1.99 abs. corr.
Functional assay IL-8 [2]: 0.533 abs. corr.
ELISA [abs. corr.] [3]: 2.1 abs. corr.
B2: P018.S.11.A.A04 (antibody, V domains shown)
VH: QSVEESGGRLVTPGTPLTLTCTVSGFSLSSYAMGWVRQAPGKGLEYIGVISTSANTYYATWAKGRFTISKTSTTVDLRITSPTTEDTATYFCARVVGLYDSYGDVDATYDAFDPWGPGTLVTVSS
VL: AQVLTQTASPVSAAVGDTVTINCQSSQSVYNNNLLSWYQQKPGQPPKLLVYDASNLASGVPHRFSGSGSGTQFTLTISGVQSDDAATYYCLGGYDDDADIYAFGGGTEVVVK
notes: V regions on human Ig constant parts; also called AB134_21

Cellular binding assay [RFU] [1]: 458 RFU
Functional assay Cross-linked by F(ab′)2 fragment IL-8 [2]: 2 abs. corr.
Functional assay IL-8 [2]: 0.538 abs. corr.
ELISA [abs. corr.] [3]: 2.5 abs. corr.
B3: P018.S.04.A.C06 (antibody, V domains shown)
VH: QSVEESGGRLVTPGTPQTLTCTVSGFSLSSYAMSWVRQAPGKGLEWIGIISSSGSTYYASWAKGRFTISKTSTTVDLKITSPTTEDTATYFCARDAYPSYSPFGYYFTLWGQGTLVTVSS
VL: AIKMTQTPASVSAAVGGTVSINCQASEDIYNYLAWYQQKPGQPPKLLIYDASDLASGVPSRFKGSGSGKQFTLTISGVQSDDAATYYCQHGYFTYSGENAFGGGTEVVVK
notes: V regions on human Ig constant parts; also called AB134_8

Cellular binding assay [RFU] [1]: 493 RFU
Functional assay Cross-linked by F(ab′)2 fragment IL-8 [2]: 1.95 abs. corr.
Functional assay IL-8 [2]: 0.393 abs. corr.
ELISA [abs. corr.] [3]: 1.44 abs. corr.
B4: P018.S.12.A.A03 (antibody, V domains shown)
VH: LEQSAGGAEGGLVKPGGSLELCCKASGFSLNNNYWICWVRQAPGKGLEWIGCIYVGVVSLTYSASWVNGRFTLSKDIDQSTGCLQLNSLTAADTAMYYCARSLYSGYAGYGDGYYGMDLWGPGTLVTVSS
VL: GVVMTQTPASVSDPVGGTVTIKCQASQSIGSDLAWYQQKPGQPPKLLIYAASNLASGVSSRFSGIRSGTEFTLTISDLESADAATYYCQCTDYVDSHDTFGGGTEVVVK
notes: V regions on human Ig constant parts; also called AB134_52

Cellular binding assay [RFU] [1]: 551 RFU
Functional assay Cross-linked by F(ab′)2 fragment IL-8 [2]: 1.95 abs. corr.
Functional assay IL-8 [2]: 0.289 abs. corr.
ELISA [abs. corr.] [3]: 2.11 abs. corr.
B5: P018.S.12.A.F04 (antibody, V domains shown)
VH: QQQLEESGGGLVKPGGTLTLTCTASGIDFSSYWMWWVRQPPGKGLEWVACIYNGDGSTYYASWAKGRFTISKTSSTTVTLQMTSLTAADTATYFCARDFHLWGPGTLVTVSS
VL: AQVLTQTASPVSAAVGSTVTINCQASQNIYKNNYLSWYQQKPGQPPKGLIYSASTLDSGVPLRFSGSGSGTKFTLTISDVQSDDAATYYCLGSVACSGPDCIVFGGGTEVVVK
notes: V regions on human Ig constant parts; also called AB134_80

Cellular binding assay [RFU] [1]: 549 RFU
Functional assay Cross-linked by F(ab′)2 fragment IL-8 [2]: 1.99 abs. corr.
Functional assay IL-8 [2]: 0.185 abs. corr.
ELISA [abs. corr.] [3]: 2.07 abs. corr.
B6: P018.S.12.A.F02 (antibody, V domains shown)
VH: QSLEESGGRLVTPGTPLTLTCTASGFSLIKSHINWVRQAPGKGLEWVGGIAYDDNTYYANWAKGRFTISKTSTTVDLRITSPTTADTATYFCAREDSSGWGSFNLWGQGTLVTVSS
VL: AQVLTQTPSSVSAAVGGTVTISCQSSQSVYATNQLSWFQQKSGQPPKRLIYSASTLASGVSSRFKGSGSGTQFTLTISGVQSDDAATYYCQGAYDCSGGDCRAFGGGTEVVVK
notes: V regions on human Ig constant parts; also called AB134_78

Cellular binding assay [RFU] [1]: 515 RFU
Functional assay Cross-linked by F(ab′)2 fragment IL-8 [2]: 2.04 abs. corr.
Functional assay IL-8 [2]: 0.062 abs. corr.
ELISA [abs. corr.] [3]: 1.61 abs. corr.
B7: P018.S.12.A.A06 (antibody, V domains shown)
VH: QSVEESGGRLVTPGTPLTLTCTVSGFSLSSFAMTWVRQAPGKGLEWIGIISSSGTTYYASWAKGRFTISKTSTTVDLRITSPTTEDTATYFCASHYDDYGDSDALDPWGPGTLVTVSS
VL: AAVMTQTPSPVSAAVGGTVTINCQASEDIYSNLAWFQQKPGQPPKLLIYRASTLASGVPSRFSGSGSGTEFTLTISGLQSDDAATYYCLGVDRHISDRAFGGGTEVVVK
notes: V regions on human Ig constant parts; also called AB134_55

Cellular binding assay [RFU] [1]: 498 RFU
Functional assay Cross-linked by F(ab′)2 fragment IL-8 [2]: 1.95 abs. corr.
Functional assay IL-8 [2]: 0.567 abs. corr.
ELISA [abs. corr.] [3]: 2.52 abs. corr.
B8: P018.S.11.A.H06 (antibody, V domains shown)
VH: QSLEESGGRLVTPGTPLTLTCTVSGFSLSTYAMIWVRQAPGEGPEWIGLIAGGGNTWYASWAKGRFTISKTSTTVDLKITSPTTEDTATYFCARADYLGYGNNFWGQGTLVTVSS
VL: AAVLTQTPSPVSAAVGGTVTINCQASQSVYNNNYLAWYQQKPGQPPKLLIYWASNLASGVPSRFSGSGSGTQFSLTISGVQSDDAATYYCLGVYDDDADNGFGGGTEVVVK
notes: V regions on human Ig constant parts; also called AB134_49
